Article PMC3523363 (Journal of medicinal chemistry, 2012)

Assays:
EGFR = EGFR (Homo sapiens, UniProt P00533); experiment: Surface plasmon resonance; format: binding; conditions: EGFR immobilized on CM5 chip, 25 °C
Spectroscopic studies = format: physicochemical; conditions: in DMF; for фF (fluorescence quantum yield): calculated using ZnPc (Фf = 0.17) as the standard; for Emission: excitation at 670 nm
[1] = in DMF; cited from earlier work
A431 cells = experiment: Phototoxicity, Cell Titer Blue assay; format: cell-based, human; conditions: 24 h
Vero cells = experiment: Phototoxicity, Cell Titer Blue assay; format: cell-based, cercopithecus aethiops; conditions: 24 h
HEp2 cells = experiment: Phototoxicity, Cell Titer Blue assay; format: cell-based, human; conditions: 24 h
HT-29 cells = experiment: Phototoxicity, Cell Titer Blue assay; format: cell-based, human; conditions: 24 h
A431 s.c. tumors = experiment: In vivo near-IR fluorescence imaging of s.c. tumor xenografts; design: species or system nude mice; conditions: 10 mg/kg iv, up to 96 h
HT-29 s.c. tumors = experiment: as above; design: species or system nude mice; conditions: HT-29 s.c. tumor, 10 mg/kg iv, up to 96 h

In the case of GYHWYGYTPQNVI [EGFR-L2], the “relative binding affinity to EGFR (SPR)” value (EGFR) is reported as “higher affinity for EGFR than EGFR-L1”.

For CC[C@H](C)[C@H](NC(=O)[C@@H](NC(=O)[C@H](CC(N)=O)NC(=O)[C@H](CCC(N)=O)NC(=O)[C@@H]1CCCN1C(=O)[C@@H](NC(=O)[C@H](Cc1ccc(O)cc1)NC(=O)CNC(=O)[C@H](Cc1ccc(O)cc1)NC(=O)[C@H](Cc1c[nH]c2ccccc12)NC(=O)[C@H](Cc1c[nH]cn1)NC(=O)[C@H](Cc1ccc(O)cc1)NC(=O)CNC(=O)COCC(=O)Nc1ccc(Oc2ccc3c4nc5nc(nc6[nH]c(nc7nc(nc([nH]4)c3c2)-c2cc(C(C)(C)C)ccc2-7)c2ccc(C(C)(C)C)cc62)-c2ccc(C(C)(C)C)cc2-5)cc1)[C@@H](C)O)C(C)C)C(N)=O [Pc 4b], the “Stokes' Shift” value (Spectroscopic studies) was 4 nm, the ε (Spectroscopic studies) was 4.85 M⁻¹ cm⁻¹ and the Absorption (Spectroscopic studies; Q band) was 677 nm. The “фF (fluorescence quantum yield)” value (Spectroscopic studies) was 0.10 and the Emission (Spectroscopic studies) was 681 nm.

In the case of [Zn+2].c1ccc2c(c1)-c1nc-2nc2[n-]c(nc3nc([n-]c4nc(n1)-c1ccccc1-4)-c1ccccc1-3)c1ccccc21 [ZnPc], the “Фf (fluorescence quantum yield) of the reference” value [1] is listed as 0.17.

In the case of CC(C)C[C@H](NC(=O)CCOCCOCCOCCNC(=O)COCC(=O)Nc1ccc(Oc2ccc3c4nc5nc(nc6[nH]c(nc7nc(nc([nH]4)c3c2)-c2cc(C(C)(C)C)ccc2-7)c2ccc(C(C)(C)C)cc62)-c2ccc(C(C)(C)C)cc2-5)cc1)C(=O)N[C@@H](C)C(=O)N[C@@H](CCCNC(=N)N)C(=O)N[C@@H](CC(C)C)C(=O)N[C@@H](CC(C)C)C(=O)N[C@H](C(N)=O)[C@@H](C)O [Pc 5b], the ε (Spectroscopic studies) is reported as 5.27 M⁻¹ cm⁻¹, the “фF (fluorescence quantum yield)” value (Spectroscopic studies) is reported as 0.11 and the Emission (Spectroscopic studies) is reported as 682 nm. For the same compound, the IC50 (A431 cells) was over 100 µM, the IC50 (Vero cells) was over 100 µM and the IC50 (HEp2 cells) was over 100 µM. For the same compound, the IC50 (HT-29 cells) was over 100 µM, the “course of tumor fluorescence signal” value (A431 s.c. tumors) was “continued to increase to 96 h” and the “course of tumor fluorescence signal” value (HT-29 s.c. tumors) was “declined from 24 to 96 h”.
